US6329500A, “Transforming growth factor-β binding site” (University of Virginia Patent Foundation, priority 1999, dated 2001)
Where two headings read alike, the source gives them in different places. Each block holds one substance with its values, some of them ahead of it.

Assays:
[1] = system: FBHE cells; experiment: Endothelial cell proliferation assay, TGF-β alone; assay type: cell-based, bovine; details: TGF-β 10 pM, 1 h pulse
Description: Fetal bovine heart endothelial (FBHE) cells were cultured in DMEM supplemented with 10% FBS, 20 ng/ml acidic fibroblast growth factor, and 80 ng/ml basic fibroblast growth factor and passaged at subconfluence with trypsin-EDTA. To perform proliferation assays, the cells were plated at a density of 2×10^4 /well (24 well plates) in DMEM supplemented with 0.2% FBS. […] The fusion proteins were preincubated with the TGF-β for 15 min prior to addition to the cultures. At the completion of an incubation, the cultures were washed 3 times with serum-free DMEM and then allowed to incubate in DMEM with 0.2% FBS for 30 h. [^3 H]Thymidine was added for an additional 18 h; the cells were then harvested and [^3 H]thymidine incorporation was quantitated.

[2] = molecular target: T1, 125I-TGF-β1 binding to immobilized FP3 (Homo sapiens, UniProt P01023+P01137); experiment: Competition for 125I-TGF-β1 binding to PVDF-immobilized FP3; details: unlabeled TGF-β1 0.2 μM
T1 construct: corresponding to amino acids 614-797 and 798-1082, respectively; made in house
T1 sequence (P01023 with tags, fused parts or gaps limits assumed): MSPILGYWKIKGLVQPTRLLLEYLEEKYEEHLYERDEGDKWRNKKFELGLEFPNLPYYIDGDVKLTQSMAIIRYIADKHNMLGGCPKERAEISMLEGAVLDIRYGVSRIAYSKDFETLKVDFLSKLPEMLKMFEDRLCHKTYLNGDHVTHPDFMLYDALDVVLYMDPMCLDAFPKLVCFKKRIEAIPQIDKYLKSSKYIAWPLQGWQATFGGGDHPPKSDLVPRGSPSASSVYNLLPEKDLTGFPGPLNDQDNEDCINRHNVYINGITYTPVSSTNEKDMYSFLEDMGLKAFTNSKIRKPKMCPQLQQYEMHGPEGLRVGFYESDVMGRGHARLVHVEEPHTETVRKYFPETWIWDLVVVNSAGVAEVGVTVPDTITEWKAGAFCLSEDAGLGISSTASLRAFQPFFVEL
T1 sequence (P01137 279-390 limits assumed): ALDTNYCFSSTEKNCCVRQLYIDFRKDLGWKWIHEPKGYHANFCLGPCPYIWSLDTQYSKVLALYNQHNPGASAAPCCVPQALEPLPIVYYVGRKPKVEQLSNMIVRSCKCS
Description: (§1) To block free sulfhydryls, some samples were treated with 5 mM IAM for 2 h at 25° C. Equivalent amounts of each protein ([…]) were subjected to SDS-PAGE on 10% slabs. IAM-treated GST-α2 M-peptide fusion proteins were subjected to SDS-PAGE as well. All samples were electro-transferred to PVDF membranes. The membranes were blocked with 5% milk and 0.1% Tween 20 in PBS for 12 h at 4° C. and then rinsed with 0.1% Tween 20 in PBS (PBS-T). […] Biophys. Res. Commun. […] NGF-β was radioiodinated with Iodogen, to a specific activity of 2-5 μCi/μg, using the method recommended by the manufacturer. […] After washing the membranes with PBS-T, bound radioligands were detected by Phosphorlmager analysis.

[3] = molecular target: T2, TGF-β1 (Homo sapiens, UniProt P01137); details: previously reported in references 31 and 33; mean ± S.E., n=4; read-out: IC50, 125I-TGF-β1 binding to immobilized α2M-MA; cited from earlier work
T2 construct: purchased R&D Systems (Minneapolis, Minn.)
T2 sequence (P01137 279-390 limits assumed, species assumed): as the sequence (P01137 279-390 limits assumed) above

[4] = molecular target: T2, TGF-β1; experiment: 125I-TGF-β1 binding to immobilized α2M-MA, solution-phase competition; details: mean ± S.E., n=4; 1 h at 22° C.
Description: The wells were washed three times with PBS-T and blocked with PBS-T for 16 h at 4° C. […] In the presence of a fusion protein (FP) which binds TGF-β, the total concentration of TGF-β [βT ] was related to [βF ], at equilibrium, as follows: [βT ]=[βF ](1+[FP]/KI).

[5] = molecular target: T2, TGF-β1; experiment: Ligand blot analysis of 125I-TGF-β1 binding to PVDF-immobilized proteins; details: SDS-PAGE, PVDF membrane, 125I-TGF-β1, 2 h at 25° C.
Description: as §1

[6] = molecular target: T3, TGF-β2 (Homo sapiens, UniProt P61812); details: read-out: KD for the binding of TGF-β2; cited from earlier work
T3 construct: purchased Genzyme (Cambridge, Mass.)
T3 sequence (P61812 303-414 limits assumed): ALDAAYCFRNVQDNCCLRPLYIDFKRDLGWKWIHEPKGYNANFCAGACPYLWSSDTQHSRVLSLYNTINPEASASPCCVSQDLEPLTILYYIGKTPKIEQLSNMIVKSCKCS

[7] = molecular target: T4, NGF-β (Mus musculus, UniProt P01139); experiment: Ligand blot analysis of 125I-NGF-β binding to PVDF-immobilized proteins; details: SDS-PAGE, PVDF membrane, 125I-NGF-β 50 pM, 2 h at 25° C.
T4 construct: from tissue; host or cells: male mouse submaxillary glands
T4 sequence (P01139 122-239 limits assumed): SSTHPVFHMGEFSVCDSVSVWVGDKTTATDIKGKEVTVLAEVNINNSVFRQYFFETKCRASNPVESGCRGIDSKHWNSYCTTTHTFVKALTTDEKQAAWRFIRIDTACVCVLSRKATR
Description: as §1

[8] = molecular target: T3, TGF-β2; details: previously reported in references 31 and 33; mean ± S.E., n=4; read-out: IC50, 125I-TGF-β2 binding to immobilized α2M-MA; cited from earlier work
[9] = molecular target: T3, TGF-β2; experiment: Ligand blot analysis of 125I-TGF-β2 binding to PVDF-immobilized proteins; details: SDS-PAGE, PVDF membrane, 125I-TGF-β2 20 pM, 2 h at 25° C.
Description: as §1

- Inhibition of 125I-TGF-β1 binding to immobilized FP3 [2]: 72±8%
Substance: TGF-β1: transforming growth factor-β1 from R&D Systems
- Decrease of [3H]thymidine incorporation [1]: 69%

Substance: Thrombospondin: solution-phase inhibitor of TGF-β binding to immobilized α2M-MA [reference compound]
- IC50 [3]: 160 ± 18 nM

- IC50 [4]: 360 ± 48 nM
Substance: α2 M monomer: prepared by exposing native α2M to 2 mM DTT under non-denaturing conditions

- 125I-TGF-β1 binding, ligand blot [5]: bound
- 125I-NGF-β binding, ligand blot [7]: bound
- 125I-TGF-β2 binding, ligand blot [9]: bound
Substance: α2 M: Human α2-macroglobulin, 718-kDa homotetrameric glycoprotein purified from plasma
- Kd [6]: 10 nM
- IC50 [3]: 520 ± 39 nM
- IC50 [8]: 19 ± 3 nM
